Data published in article PMC5154475, “Dual Therapeutic Action of a Neutralizing Anti-FGF2 Aptamer in Bone Disease and Bone Cancer Pain” (Molecular Therapy, 2016).

Target: T1, mouse recombinant FGF R3(IIIc)-Fc (mouse, UniProt Q61851 21-369)
T1 construct: FGF receptor 3, (IIIc) form, mouse, extracellular domain fused to IgG-Fc portion; also called FGFR3 (murine); source: bought: R&D Systems
T1 sequence (looked up): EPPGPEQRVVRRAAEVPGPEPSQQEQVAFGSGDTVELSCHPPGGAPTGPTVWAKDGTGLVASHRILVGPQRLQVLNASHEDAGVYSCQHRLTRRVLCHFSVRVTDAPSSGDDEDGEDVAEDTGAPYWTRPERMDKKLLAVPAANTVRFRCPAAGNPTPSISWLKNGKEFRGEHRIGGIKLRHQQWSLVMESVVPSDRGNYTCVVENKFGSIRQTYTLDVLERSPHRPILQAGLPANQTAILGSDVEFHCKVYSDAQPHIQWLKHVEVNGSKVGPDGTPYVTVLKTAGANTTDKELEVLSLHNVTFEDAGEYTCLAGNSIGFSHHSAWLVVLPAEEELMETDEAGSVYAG
Test: SPR; Biacore 2000; FGFR/Fc fusion proteins immobilised onto a CM5 sensor chip via prebound protein A (1,000 RUs); FGF2 injected with or without the RNA aptamer APT-F2; for FGFR1: receptor 100 nmol/l, FGF2 100 nmol/l, heparin 100 nmol/l, APT-F2 150 nmol/l
Conditions: both partners purified

B1: murine FGF2 (ligand, UniProt P15655 10-154, looked up)
chain: PALPEDGGAAFPPGHFKDPKRLYCKNGGFFLRIHPDGRVDGVREKSDPHVKLQLQAEERGVVSIKGVCANRYLAMKEDGRLLASKCVTEECFFFERLESNNYNTYRSRKYSSWYVALKRTGQYKLGSKTGPGQKAILFLPMSAKS
notes: Fibroblast growth factor 2, mouse, recombinant; also called mouse FGF2; source: bought: PEPROTECH
B1: binds.
